From US20200207850A1 (MacroGenics, published 2020)
Numbering of substitutions follows the chain as printed. Blank lines part the entries; values can stand above or below the binder they belong to.

Assays:
[1] = target: T1, 5T4 on JIMT-1 target cells (UniProt Q13641 32-420, limits assumed); assay: cell-based or functional assay
T1 sequence (looked up): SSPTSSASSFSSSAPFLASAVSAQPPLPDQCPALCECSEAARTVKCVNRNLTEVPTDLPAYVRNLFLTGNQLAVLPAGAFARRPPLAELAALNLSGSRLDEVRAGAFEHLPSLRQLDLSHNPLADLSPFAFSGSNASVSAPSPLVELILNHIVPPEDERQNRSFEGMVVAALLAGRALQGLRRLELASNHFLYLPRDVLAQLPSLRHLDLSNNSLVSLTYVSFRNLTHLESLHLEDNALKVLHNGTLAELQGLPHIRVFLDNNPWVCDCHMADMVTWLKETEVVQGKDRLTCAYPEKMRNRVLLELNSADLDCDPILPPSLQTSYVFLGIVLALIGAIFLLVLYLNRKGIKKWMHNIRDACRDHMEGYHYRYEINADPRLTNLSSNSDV

[2] = target: T2, CD8 on human T cells (PBMC) (human, UniProt P01732 22-235); assay: flow cytometry on human PBMC gated CD5+/CD4- (cells carry CD8 and CD3), detection with anti-human Fc-PE
T2 construct: whole, on cells; The CD8+ (CD5+ CD4-) cells also carry CD3; also called CD5+ CD4- gated PBMC; CD8+ T cells
T2 sequence (P01732 22-235): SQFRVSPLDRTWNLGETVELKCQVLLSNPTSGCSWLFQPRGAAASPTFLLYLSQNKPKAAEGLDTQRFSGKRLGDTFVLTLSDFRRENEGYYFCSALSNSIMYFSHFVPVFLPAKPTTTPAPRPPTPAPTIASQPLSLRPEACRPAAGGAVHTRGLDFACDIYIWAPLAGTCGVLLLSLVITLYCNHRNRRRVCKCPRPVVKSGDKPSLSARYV

EC50 (read off the curve) [2]: ~1000 pM
B1: 5T4 mAb 1/CD3 mAb 2/CD8 mAb 1 Tri-Specific Binding Molecule (other)
chain 1: DIQMTQSPSSLSASVGDRVTITCRASQGISNYLAWFQQKPGKAPKSLIYRANRLQSGVPSRFSGSGSGTDFTLTISSLQPEDVATYYCLQYDDFPWTFGQGTKLEIKGGGSGGGGEVQLVESGGGLVQPGGSLRLSCAASGFTFSTYAMNWVRQAPGKGLEWVGRIRSKYNNYATYYADSVKGRFTISRDDSKNSLYLQMNSLKTEDTAVYYCVRHGNFGNSYVSWFAYWGQGTLVTVSSGGCGGGEVAALEKEVAALEKEVAALEKEVAALEKGGGDKTHTCPPCPAPEAAGGPSVFLFPPKPKDTLMISRTPEVTCVVVDVSHEDPEVKFNWYVDGVEVHNAKTKPREEQYNSTYRVVSVLTVLHQDWLNGKEYKCKVSNKALPAPIEKTISKAKGQPREPQVYTLPPSREEMTKNQVSLWCLVKGFYPSDIAVEWESNGQPENNYKTTPPVLDSDGSFFLYSKLTVDKSRWQQGNVFSCSVMHEALHNHYTQKSLSLSPGK
chain 2: QAVVTQEPSLTVSPGGTVTLTCRSSTGAVTTSNYANWVQQKPGQAPRGLIGGTNKRAPWTPARFSGSLLGGKAALTITGAQAEDEADYYCALWYSNLWVFGGGTKLTVLGGGGSGGGGQVQLVQSGAEVKKPGASVKVSCKASGYTFTSFWMHWVRQAPGQGLEWMGRIDPNRGGTEYNEKAKSRVTMTADKSTSTAYMELSSLRSEDTAVYYCAGGNPYYPMDYWGQGTTVTVSSGGCGGGKVAALKEKVAALKEKVAALKEKVAALKE
heavy: EVQLQQSGAELVKPGASVKLSCTASGFNIKDTYIHFVRQRPEQGLEWIGRIDPANDNTLYASKFQGKATITADTSSNTAYMHLCSLTSGDTAVYYCGRGYGYYVFDHWGQGTTLTVSSASTKGPSVFPLAPSSKSTSGGTAALGCLVKDYFPEPVTVSWNSGALTSGVHTFPAVLQSSGLYSLSSVVTVPSSSLGTQTYICNVNHKPSNTKVDKRVEPKSCDKTHTCPPCPAPEAAGGPSVFLFPPKPKDTLMISRTPEVTCVVVDVSHEDPEVKFNWYVDGVEVHNAKTKPREEQYNSTYRVVSVLTVLHQDWLNGKEYKCKVSNKALPAPIEKTISKAKGQPREPQVYTLPPSREEMTKNQVSLSCAVKGFYPSDIAVEWESNGQPENNYKTTPPVLDSDGSFFLVSKLTVDKSRWQQGNVFSCSVMHEALHNRYTQKSLSLSPGK
light: DVQINQSPSFLAASPGETITINCRTSRSISQYLAWYQEKPGKTNKLLIYSGSTLQSGIPSRFSGSGSGTDFTLTISGLEPEDFAMYYCQQHNENPLTFGAGTKLELRRTVAAPSVFIFPPSDEQLKSGTASVVCLLNNFYPREAKVQWKVDNALQSGNSQESVTEQDSKDSTYSLSSTLTLSKADYEKHKVYACEVTHQGLSSPVTKSFNRGEC
EC50 (nM) of killing, CD4+ effector cells, JIMT1-luc target cells, E:T 5:1 [1]: 0.0045 nM | EC50 (nM) of killing, CD8+ effector cells, JIMT1-luc target cells, E:T 5:1 [1]: 0.0007 nM | EC50 (nM) of killing, PanT effector cells, JIMT1-luc target cells, E:T 5:1 [1]: 0.0009 nM

EC50 (read off the curve) [2]: ~800 pM
B2: 5T4 mAb 1/CD3 mAb 2 Low/CD8 mAb 1 Tri-Specific Binding Molecule (other)
chain 1: DIQMTQSPSSLSASVGDRVTITCRASQGISNYLAWFQQKPGKAPKSLIYRANRLQSGVPSRFSGSGSGTDFTLTISSLQPEDVATYYCLQYDDFPWTFGQGTKLEIKGGGSGGGGEVQLVESGGGLVQPGGSLRLSCAASGFTFSTYAMNWVRQAPGKGLEWVGRIRSKYNNYATYYADSVKGRFTISRDDSKNSLYLQMNSLKTEDTAVYYCVRHGNFGNSYVTWFAYWGQGTLVTVSSASTKGEVAACEKEVAALEKEVAALEKEVAALEKGGGDKTHTCPPCPAPEAAGGPSVFLFPPKPKDTLMISRTPEVTCVVVDVSHEDPEVKFNWYVDGVEVHNAKTKPREEQYNSTYRVVSVLTVLHQDWLNGKEYKCKVSNKALPAPIEKTISKAKGQPREPQVYTLPPSREEMTKNQVSLWCLVKGFYPSDIAVEWESNGQPENNYKTTPPVLDSDGSFFLYSKLTVDKSRWQQGNVFSCSVMHEALHNHYTQKSLSLSPGK
chain 2: QAVVTQEPSLTVSPGGTVTLTCRSSTGAVTTSNYANWVQQKPGQAPRGLIGGTNKRAPWTPARFSGSLLGGKAALTITGAQAEDEADYYCALWYSNLWVFGGGTKLTVLGGGGSGGGGQVQLVQSGAEVKKPGASVKVSCKASGYTFTSFWMHWVRQAPGQGLEWMGRIDPNRGGTEYNEKAKSRVTMTADKSTSTAYMELSSLRSEDTAVYYCAGGNPYYPMDYWGQGTTVTVSSASTKGKVAACKEKVAALKEKVAALKEKVAALKE
heavy: B1 heavy
light: B1 light

EC50 (read off the curve) [2]: ~500 pM
B3: 5T4 mAb 1/CD3 mAb 2 Fast/CD8 mAb 1 Tri-Specific Binding Molecule (other)
chain 1: B2 chain 1 with G217K
chain 2: B2 chain 2
heavy: B1 heavy
light: B1 light
EC50 (nM) of killing, CD4+ effector cells, JIMT1-luc target cells, E:T 5:1 [1]: 0.16 nM | EC50 (nM) of killing, CD8+ effector cells, JIMT1-luc target cells, E:T 5:1 [1]: 0.0021 nM | EC50 (nM) of killing, PanT effector cells, JIMT1-luc target cells, E:T 5:1 [1]: 0.0028 nM
